# Data as given in US20180291083A1 (IMMATICS BIOTECHNOLOGIES, published 2018).
# Molecular target: T1, HLA-A*01:01 (human)
# T1 construct: Peptide-receptive MHC class I monomer made by UV cleavage of a UV-sensitive ligand
# Test: UV ligand exchange ELISA; exchange yield grade
# Description: (§1) Candidate peptides for T cell based therapies according to the present invention were further tested for their MHC binding capacity (affinity). The individual peptide-MHC complexes were produced by UV-ligand exchange, where a UV-sensitive peptide is cleaved upon UV-irradiation, and exchanged with the peptide of interest as analyzed. Only peptide candidates that can effectively bind and stabilize the peptide-receptive MHC molecules prevent dissociation of the MHC complexes. To determine the yield of the exchange reaction, an ELISA was performed based on the detection of the light chain (β2m) of stabilized MHC complexes. The assay was performed as generally described in Rodenko et al. (Rodenko et al., 2006).
# (§2) 96 well MAXISorp plates (NUNC) were coated over night with 2 ug/ml streptavidin in PBS at room temperature, washed 4× and blocked for 1 h at 37° C. in 2% BSA containing blocking buffer. Refolded HLA-A*02:01/MLA-001 monomers served as standards, covering the range of 15-500 ng/ml. Peptide-MHC monomers of the UV-exchange reaction were diluted 100-fold in blocking buffer. Samples were incubated for 1 h at 37° C., washed four times, incubated with 2 ug/ml HRP conjugated anti-β2m for 1 h at 37° C., washed again and detected with TMB solution that is stopped with […]. Absorption was measured at 450 nm. Candidate peptides that show a high exchange yield (preferably higher than 50%, most preferred higher than 75%) are generally preferred for a generation and production of antibodies or fragments thereof, and/or T cell receptors or fragments thereof, as they show sufficient avidity to the MHC molecules and prevent dissociation of the MHC complexes.
row,peptide exchange yield [%],Binder
1,20 to 50,YINPAKLTPY
2,50 to 75,ALDQNKMHY
3,50 to 75,LTEGHSGNYY

# Molecular target: T2, HLA-B*07:02 (human)
# T2 construct: Peptide-receptive MHC class I monomer made by UV cleavage of a UV-sensitive ligand
# Test: UV ligand exchange ELISA; exchange yield grade
# Description: as §1, §2
row,peptide exchange yield [%],Binder
1,20 to 50,YPGSDRIML
2,20 to 50,SPLSHHSQL
3,50 to 75,SPRNLQPQRAAL
4,50 to 75,SPSLPNITL
5,20 to 50,SPSLPSRTL
6,> 75,SPRITFPSL
7,20 to 50,SPWLHAPSL
8,50 to 75,SPRSWIQVQI
9,20 to 50,SPKESENAL
10,20 to 50,SPFSFHHVL
11,20 to 50,VPNLQTVSV
12,50 to 75,SPRVYWLGL
13,20 to 50,SPADHRGYASL
14,> 75,SPLGSLARSSL

# The remaining lines, values behind:
row,Binder,peptide exchange yield [%]
1,APRPAGSYL,50 to 75
2,LPYDSKHQI,20 to 50
3,QPRLFTMDL,50 to 75
4,RPSNKAPLL,50 to 75
5,APSKTSLIM,20 to 50
6,LPKVQSIQL,20 to 50
7,QPSPARAPAEL,20 to 50
8,MPLSTIREV,20 to 50
9,KPMKSVLVV,50 to 75
10,MPSSDTTVTF,50 to 75
11,RPHIPISKL,20 to 50
12,APAPAEKTPV,50 to 75
13,RPFADLLGTAF,50 to 75

# Molecular target: T3, HLA-A*03:01 (human)
# T3 construct: Peptide-receptive MHC class I monomer made by UV cleavage of a UV-sensitive ligand
# Test: UV ligand exchange ELISA; exchange yield grade
# Description: as §1, §2
row,peptide exchange yield [%],Binder
1,20 to 50,RVLTGVFTK
2,20 to 50,VILESIFLK
3,20 to 50,RVYNIYIRR
4,20 to 50,SVAHLLSKY
5,20 to 50,SVSSSTHFTR
6,20 to 50,SISNLVFTY
7,50 to 75,VVFPFPVNK
8,20 to 50,RVFPSPMRI
9,20 to 50,SVLDLSVHK
10,20 to 50,SVFEGDSIVLK
11,20 to 50,TTVPHVFSK
12,50 to 75,SVYSETSNMDK

# The remaining lines, values behind:
row,Binder,peptide exchange yield [%]
1,KVYDPVSEY,20 to 50
2,RIKPPGPTAVPK,50 to 75
3,KLMETSMGF,20 to 50
4,RMYSQLKTLQK,50 to 75
5,KAFNQSSTLTK,50 to 75
6,ATGAATPKK,50 to 75
7,KAKKPAGAAK,50 to 75
8,GLLEEALFY,20 to 50
9,KATGAATPK,20 to 50
10,ATKSPAKPK,50 to 75
11,HSYSSPSTK,50 to 75
12,LLNRHILAH,50 to 75
13,LLWHWDTTQSLK,10 to 20
14,KTLPAMLGTGK,20 to 50
15,KARKSAGAAK,50 to 75
16,RIKAPSRNTIQK,20 to 50
17,RSKEYIRKK,10 to 20
18,RTYGFVLTF,20 to 50
19,KTSNIVKIK,20 to 50
20,KAKAAAKPK,20 to 50
21,RIYDEILQSK,20 to 50
22,ATYNKQPMYR,50 to 75
23,ASTTVLALK,20 to 50
24,KLNPQQAPLY,20 to 50
